Test results published in patent US7700318 (AMPROTEIN, dated 2010).

Biological target: T1, recombinant human IL-1 receptor extracellular domain (human, UniProt P14778 18-336)
T1 construct: extracellular domain; also called in-house mammalian recombinant IL-receptor extracellular domain
T1 sequence (looked up): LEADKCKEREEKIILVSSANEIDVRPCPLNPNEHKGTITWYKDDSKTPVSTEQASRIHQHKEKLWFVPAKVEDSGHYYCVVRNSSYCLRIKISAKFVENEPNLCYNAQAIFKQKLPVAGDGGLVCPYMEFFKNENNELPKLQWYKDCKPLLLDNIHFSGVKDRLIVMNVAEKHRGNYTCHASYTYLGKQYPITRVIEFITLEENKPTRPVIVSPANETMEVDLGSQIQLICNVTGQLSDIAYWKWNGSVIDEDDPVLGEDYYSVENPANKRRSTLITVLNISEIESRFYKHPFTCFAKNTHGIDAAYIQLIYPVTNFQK
Assay: ELISA: test proteins coated on 96-well plate, IL-1 receptor extracellular domain incubated at 37 C, detected with rabbit anti human IL-1 receptor antibodies and goat anti rabbit HRP (FIG. 5)
Method: For IL-1 receptor binding assay, recombinant human IL-1 receptor extracellular domain was first produced in house using a mammalian host. TNFRII-Fc-IL-1ra, negative control TNFRII-Fc and positive control IL-1ra (KINERET) have been coated to 96-well plate. IL-1 receptor is then incubated at 37° C. for binding. The binding is detected using rabbit anti human IL-1 receptor extracellular domain antibodies, followed by goat anti rabbit […] conjugated with HRP.

binding result: no binding
B1: TNFRII-Fc (ENBREL) (Fc fusion, UniProt P20333 23-257, looked up)
chain: LPAQVAFTPYAPEPGSTCRLREYYDQTAQMCCSKCSPGQHAKVFCTKTSDTVCDSCEDSTYTQLWNWVPECLSCGSRCSSDQVETQACTREQNRICTCRPGWYCALSKQEGCRLCAPLRKCRPGFGVARPGTETSDVVCKPCAPGTFSNTTSSTDICRPHQICNVVAIPGNASMDAVCTSTSPTRSMAPGAVHLPQPVSTRSQHTQPTPEPSTAPSTSFLLPMGPSPPAEGSTGD
notes: Marketed product; also called marketed TNFRII-Fc (ENBREL); not shown: Fc part of the marketed product
